The labels stand for the following.
B1: Gal4AD-Sds22 [S. cerevisiae] / Gal4(1-147)-Glc7 [S. cerevisiae] (parent complex)
chain 1: MDKNSVNKDSEEKDERHKIEVVDDTNPDFITADSELTQDLPDDVEVIDLVHLKIKSLEDLNLYRFKNLKQLCLRQNLIESISEVEVLPHDKIVDLDFYDNKIKHISSNVNKLTKLTSLDLSFNKIKHIKNLENLTDLENLYFVQNSISKIENLSTLKSLKNLELGGNKVHSIEPDSFEGLSNLEEIWLGKNSIPRLINLHPLKNLKILSIQSNKLKKIENLEELTNLEELYLSHNFITKIEGLEKNLKLTTLDVTSNKITSLENLNHLSNLTDIWASFNKIDQSFESLGENLSALSRLETIYLEGNPIQLENKTSYRRKLTMNLPPSLQKIDATYIRG
chain 2: MDSQPVDVDNIIDRLLEVRGSKPGQQVDLEENEIRYLCSKARSIFIKQPILLELEAPIKICGDIHGQYYDLLRLFEYGGFPPESNYLFLGDYVDRGKQSLETICLLLAYKIKYPENFFILRGNHECASINRIYGFYDECKRRYNIKLWKTFTDCFNCLPIAAIIDEKIFCMHGGLSPDLNSMEQIRRVMRPTDIPDVGLLCDLLWSDPDKDIVGWSENDRGVSFTFGPDVVNRFLQKQDMELICRAHQVVEDGYEFFSKRQLVTLFSAPNYCGEFDNAGAMMSVDESLLCSFQILKPAQKSLPRQAGGRKKK

The variants in the assay derive from B1. Kind of assay: two-hybrid assay (β-galactosidase activity); three independent PJ69-4A transformants; parent: 23; read off a plot.
chain 1 MDKNSVNKDSEEKDERHKIEVVDDTNPDFITADSELTQDLPDDVEVIDLVHLKIKSLEDLNLYRFKNLKQLCLRQNLIESISEVEVLPHDKIVDLDFYDNKIKHISSNVNKLTKLTSLDLSFNKIKHIKNLENLTDLENLYFVQNSISKIENLSTLKSLKNLELGGNKVHSIEPDSFEGLSNLEEIWLGKNSIPRLINLHPLKNLKILSIQSNKLKKIENLEELTNLEELYLSHNFITKIEGLEKNLKLTTLDVTSNKITSLENLNHLSNLTAIWASFNKIDQSFESLGENLSALSRLETIYLEGNPIQLENKTSYRRKLTMNLPPSLQKIDATYIRG [chain 1 D273A]: the response is ~19.

In the case of chain 1 MDKNSVNKDSEEKDERHKIEVVDDTNPDFITADSELTQDLPDDVEVIDLVHLKIKSLEDLNLYRFKNLKQLCLRQNLIESISEVEVLPHDKIVDLDFYDNKIKHISSNVNKLTKLTSLALSFNKIKHIKNLENLTDLENLYFVQNSISKIENLSTLKSLKNLELGGNKVHSIEPDSFEGLSNLEEIWLGKNSIPRLINLHPLKNLKILSIQSNKLKKIENLEELTNLEELYLSHNFITKIEGLEKNLKLTTLDVTSNKITSLENLNHLSNLTDIWASFNKIDQSFESLGENLSALSRLETIYLEGNPIQLENKTSYRRKLTMNLPPSLQKIDATYIRG [chain 1 D119A], the response is ~11.

For the variant chain 1 MDKNSVNKDSEEKDERHKIEVVDDTNPDFITADSELTQDLPDDVEVIDLVHLKIKSLEDLNLYRFKNLKQLCLRQNLIGSISEVEVLPHDKIVDLDFYDNKIKHISSNVNKLTKLTSLDLSFNKIKHIKNLENLTDLENLYFVQNSISKIENLSTLKSQKNLELGGNKVHSIEPDSFEGLSNLEEIWLGKNSIPRLINLHPLKNLKILSIQSNKLKKIENLEELTNLEELYLSHNFITKIEGLEKNLKLTTLDVTSNKITSLENLNHLSNLTDIWASFNKIDQSFESLGENLSAISRLETIYLEGNPIQLENKTSYRRKLTMNLPPSLQKIDATYIRG [chain 1 E79G, chain 1 L159Q, chain 1 L295I], the response was ~6.

For chain 1 MDKNSVNKDSEEKDERHKIEVVDDTNPDFITADSELTQDLPDDVEVIDLVHLKIKSLEDLNLYRLKNLKQLCLRQNLIESISEVEVLPHDKIVDLDFYDNKIKHISSNVNKLTKLTSLDLSFNKIKHIKNLENLTDLENLHFVQNSISKIENLSTLKSLKNLELGGNKVHSIEPDSFEGLSNLEEIWLGKNSIPRLINLHPLKNLKILSTQSNKLKKIENLEELTNLEELYLSHNFITKIEGLEKNLKLTTLDVTSNKITSLENLNHLSNLTDIWASFNKIDQSFESLGENLSALSRLETIYLEGNPIQLENKTSYRRKLTMNLPPSLQKIDATYIRG [chain 1 F65L, chain 1 Y141H, chain 1 I210T], the response was ~13. On to chain 1 MDKNSVNKDSEEKDERHKIEVVDDTNPDFITADSELTQDLPDDVEVIDLVHLKIKSLEDLNLYRFKNLKQLCLRQNLIESISEVEVLPHDKIVDLDFYDNKIKHISSNVNKLTKLTSLDLSFNKIKHIKNLENLTDLENLYFVQNSISKIENLSTLKSLKNLELGGNKVHSIEPDSFEGLSNLEEIWLGKNSIPRLINLHPLKNLKILSIQSNKLKKIENLEELTNLEELYLSHNFITKIEGLEKNLKLTTLDVTSNKITSLENLNHLSNLTDIAASFNKIDQSFESLGENLSALSRLETIYLEGNPIQLENKTSYRRKLTMNLPPSLQKIDATYIRG [chain 1 W275A], for which the response was ~11.

These data come from PMC3718817 (2013).
